Results from patent US20050153395A1, “Unique integrin binding site in connective tissue growth factor (CTGF)” (CHILDREN'S HOSPITAL INC., priority 2003, published 2005).

What was measured:
[1] = target: integrin αvβ3 on activated rat hepatic stellate cells (HSC) (rat) (UniProt Q8R2H2); experiment: cell-based or functional assay
[2] = target: integrin αvβ3 (purified, human) (human) (UniProt P06756); experiment: solid phase ELISA, coated ligand, purified αvβ3 (1 µg/ml)
Sequence of integrin αvβ3 (purified, human) (human) (P06756 31-1048, form in doubt, chain 1 of 2): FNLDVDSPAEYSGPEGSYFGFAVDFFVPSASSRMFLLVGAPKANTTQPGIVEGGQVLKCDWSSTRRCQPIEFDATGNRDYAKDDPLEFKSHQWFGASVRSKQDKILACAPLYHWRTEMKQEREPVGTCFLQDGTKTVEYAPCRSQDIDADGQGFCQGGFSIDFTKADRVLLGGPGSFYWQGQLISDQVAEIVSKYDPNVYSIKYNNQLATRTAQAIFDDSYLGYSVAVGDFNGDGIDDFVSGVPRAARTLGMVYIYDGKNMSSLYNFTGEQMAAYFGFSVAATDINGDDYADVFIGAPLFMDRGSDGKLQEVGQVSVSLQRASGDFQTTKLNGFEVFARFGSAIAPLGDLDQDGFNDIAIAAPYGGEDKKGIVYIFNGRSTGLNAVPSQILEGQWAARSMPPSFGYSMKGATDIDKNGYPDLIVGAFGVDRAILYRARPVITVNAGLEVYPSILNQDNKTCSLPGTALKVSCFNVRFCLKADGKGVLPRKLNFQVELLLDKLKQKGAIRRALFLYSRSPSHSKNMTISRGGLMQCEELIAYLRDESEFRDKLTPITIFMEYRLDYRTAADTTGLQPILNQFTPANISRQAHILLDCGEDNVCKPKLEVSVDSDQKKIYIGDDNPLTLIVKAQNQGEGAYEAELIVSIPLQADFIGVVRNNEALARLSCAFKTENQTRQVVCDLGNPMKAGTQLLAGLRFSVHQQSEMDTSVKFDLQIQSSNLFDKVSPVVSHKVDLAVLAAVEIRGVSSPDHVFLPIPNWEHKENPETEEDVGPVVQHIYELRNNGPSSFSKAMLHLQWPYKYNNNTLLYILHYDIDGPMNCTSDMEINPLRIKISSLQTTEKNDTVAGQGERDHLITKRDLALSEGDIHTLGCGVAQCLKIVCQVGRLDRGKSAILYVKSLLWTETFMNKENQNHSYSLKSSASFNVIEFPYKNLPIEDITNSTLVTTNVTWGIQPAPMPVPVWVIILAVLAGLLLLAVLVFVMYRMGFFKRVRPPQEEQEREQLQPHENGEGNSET
Sequence of integrin αvβ3 (purified, human) (human) (P05106 27-788, form in doubt, chain 2 of 2, further chain): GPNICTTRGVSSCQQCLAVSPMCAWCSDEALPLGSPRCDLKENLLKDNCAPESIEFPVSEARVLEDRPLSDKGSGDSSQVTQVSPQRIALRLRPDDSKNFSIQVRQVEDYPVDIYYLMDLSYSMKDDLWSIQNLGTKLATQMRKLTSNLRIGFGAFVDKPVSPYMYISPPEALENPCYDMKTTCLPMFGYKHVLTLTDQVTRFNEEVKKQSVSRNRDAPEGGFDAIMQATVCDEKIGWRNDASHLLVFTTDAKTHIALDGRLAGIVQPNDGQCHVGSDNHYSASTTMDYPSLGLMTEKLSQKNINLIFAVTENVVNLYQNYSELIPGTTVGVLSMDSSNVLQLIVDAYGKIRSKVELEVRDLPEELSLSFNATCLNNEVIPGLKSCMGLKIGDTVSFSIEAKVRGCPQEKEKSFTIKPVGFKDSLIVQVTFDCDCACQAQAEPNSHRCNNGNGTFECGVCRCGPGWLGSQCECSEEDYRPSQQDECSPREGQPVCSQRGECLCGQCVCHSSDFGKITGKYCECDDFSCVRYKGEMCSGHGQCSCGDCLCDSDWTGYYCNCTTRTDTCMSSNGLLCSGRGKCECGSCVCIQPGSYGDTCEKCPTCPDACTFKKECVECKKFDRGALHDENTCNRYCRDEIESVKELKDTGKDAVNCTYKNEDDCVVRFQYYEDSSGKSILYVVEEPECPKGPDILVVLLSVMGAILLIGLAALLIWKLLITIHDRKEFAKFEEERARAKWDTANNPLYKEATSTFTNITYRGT

Sequence of integrin αvβ3 on activated rat hepatic stellate cells (HSC) (rat) (Q8R2H2 26-787): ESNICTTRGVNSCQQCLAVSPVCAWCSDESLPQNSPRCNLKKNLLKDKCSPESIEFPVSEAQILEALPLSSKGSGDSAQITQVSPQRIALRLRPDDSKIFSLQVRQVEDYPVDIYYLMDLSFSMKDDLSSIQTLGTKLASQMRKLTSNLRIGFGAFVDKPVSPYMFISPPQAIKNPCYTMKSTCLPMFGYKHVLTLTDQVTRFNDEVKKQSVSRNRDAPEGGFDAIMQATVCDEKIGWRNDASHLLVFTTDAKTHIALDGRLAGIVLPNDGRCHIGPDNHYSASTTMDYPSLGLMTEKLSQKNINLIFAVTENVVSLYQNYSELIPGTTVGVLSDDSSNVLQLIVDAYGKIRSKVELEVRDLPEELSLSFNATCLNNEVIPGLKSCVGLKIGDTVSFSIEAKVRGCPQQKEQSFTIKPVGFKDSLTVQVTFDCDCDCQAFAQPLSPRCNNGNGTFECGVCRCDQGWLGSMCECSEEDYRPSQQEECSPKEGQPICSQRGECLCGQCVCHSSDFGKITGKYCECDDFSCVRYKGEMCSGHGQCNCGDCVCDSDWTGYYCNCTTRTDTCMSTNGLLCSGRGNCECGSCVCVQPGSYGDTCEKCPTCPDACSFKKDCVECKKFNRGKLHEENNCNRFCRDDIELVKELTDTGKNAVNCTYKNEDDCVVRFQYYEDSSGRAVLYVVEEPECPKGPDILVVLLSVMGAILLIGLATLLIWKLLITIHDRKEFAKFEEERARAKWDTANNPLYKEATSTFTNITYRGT

With vitronectin (ligand) the decrease in HSC binding to vitronectin by RGD peptides (GRGDsp, Echistatin) [1] was 100% and the coating concentration at saturation of binding [2] was 4 µg/mL.
